Measured values published in patent US20250353912A1 (NEW YORK UNIVERSITY, published 2025).

Key:
[1] = biological target: T1, HLA-A*02:01 in complex with the EGFR peptide … conjugated with osimertinib (human, osimertinib covalently bound to Cys); test: phage display selection; MBBA
T1 construct: also called HLA-A*02:01_EGFR-osimertinib; osimertinib-EGFR/HLA-A*02

[2] = biological target: T2, HLA-A*03:01 in complex with the KRAS (wild type) peptide … (human); test: flow cytometry on peptide-loaded Raji cells (FIG. 16)
T2 construct: also called HLA-A*03:01_WTRAS

[3] = biological target: T2, HLA-A*03:01 in complex with the KRAS …; test: MBBA titration of purified IgG (FIG. 11)
[4] = biological target: T3, HLA-A*11:01 in complex with the KRAS (wild type) peptide … (human); test: MBBA titration of purified IgG (FIG. 11)
T3 construct: also called HLA-A*11:01_WTRAS

Binder | binding result [1] | further results
OEA2-1 (antibody, V domains shown, phage-display clone) VH: EVQLVESGGGLVQPGGSLRLSCAASGFTFSSSSIHWVRQAPGKGLEWVASISSSSGSTSYADSVKGRFTISADTSKNTAYLQMNSLRAEDTAVYYCARYYGYVWGGYWGWWYSKALDYWGQGTLVTVSS VL: DIQMTQSPSSLSASVGDRVTITCRASQSVSSAVAWYQQKPGKAPKLLIYSASSLYSGVPSRFSGSRSGTDFTLTISSLQPEDFATYYCQQSSSSLITFGQGTKVEIKR | binds | –
OEA2-16 (antibody, V domains shown, phage-display clone) VH: EVQLVESGGGLVQPGGSLRLSCAASGFTFSSSSIHWVRQAPGKGLEWVASISSSSGSTSYADSVKGRFTISADTSKNTAYLQMNSLRAEDTAVYYCARSPSSPYFMSWGWYWQYGIDYWGQGTLVTVSS VL: DIQMTQSPSSLSASVGDRVTITCRASQSVSSAVAWYQQKPGKAPKLLIYSASSLYSGVPSRFSGSRSGTDFTLTISSLQPEDFATYYCQQSSSSLITFGQGTKVEIKR | binds | –
OEA2-12 (antibody, V domains shown, phage-display clone) VH: EVQLVESGGGLVQPGGSLRLSCAASGFTIYSSSIHWVRQAPGKGLEWVASISSYYGYTSYADSVKGRFTISADTSKNTAYLQMNSLRAEDTAVYYCARYQYYGSLYYSQQWAMDYWGQGTLVTVSS VL: DIQMTQSPSSLSASVGDRVTITCRASQSVSSAVAWYQQKPGKAPKLLIYSASSLYSGVPSRFSGSRSGTDFTLTISSLQPEDFATYYCQQYDWNYYLVTFGQGTKVEIKR | binds | –
OEA2-21 (antibody, V domains shown, phage-display clone) VH: EVQLVESGGGLVQPGGSLRLSCAASGFTFSSSYIHWVRQAPGKGLEWVASISPSYGYTSYADSVKGRFTISADTSKNTAYLQMNSLRAEDTAVYYCARDMYEWWHWAIDYWGQGTLVTVSS VL: DIQMTQSPSSLSASVGDRVTITCRASQSVSSAVAWYQQKPGKAPKLLIYSASSLYSGVPSRFSGSRSGTDFTLTISSLQPEDFATYYCQQSSWGGLVTFGQGTKVEIKR | binds | –
P2AMR-1 in the human IgG1 format (antibody, V domains shown, human IgG1; also called P2AMR-1 IgG) VH: QVQLVQSEPEVKKPGSSVKLSCKASGGTFSTDAITWVRQAPGQGLEYMGGIIPLLDSVDYAQRFQGRVTVSADKSTGTAYMEVRSLGSEDTAKYYCAKWSSVDTGLDYWGQGTLVTVSS VL: QSVLIQPRSVSGSPGQSVTISCTGTSSDVGGYNYVSWYQQHPGKAPKLMIYDVSKRPSGVPDRFSGSKSGNTASLTVSGLQAEDEADYYCGSYADTDTIVFGTGTKLTVL | – | binding result [2]: no binding
AMRA3-18 (antibody, human IgG1, V domains shown, phage-display clone; purified as human IgG1/kappa; also called AMRA3-18 hIgG1) VH: EVQLVESGGGLVQPGGSLRLSCAASGFTVSYSSIHWVRQAPGKGLEWVASISSSSGYTSYADSVKGRFTISADTSKNTAYLQMNSLRAEDTAVYYCARYAWWAHGLDYWGQGTLVTVSS VL: DIQMTQSPSSLSASVGDRVTITCRASQSVSSAVAWYQQKPGKAPKLLIYSASSLYSGVPSRFSGSRSGTDFTLTISSLQPEDFATYYCQQGSYTYRLITFGQGTKVEIKR | – | binding result [3]: no binding; binding result [4]: no binding
